Measurements: patent publication US20170355774A1 (Regeneron, published 2017)

T1: human GITR (amino acids M1-V241, NCBI Accession #NP_004186.1) expressed on cells (human, UniProt Q9Y5U5 26-241)
T1 sequence: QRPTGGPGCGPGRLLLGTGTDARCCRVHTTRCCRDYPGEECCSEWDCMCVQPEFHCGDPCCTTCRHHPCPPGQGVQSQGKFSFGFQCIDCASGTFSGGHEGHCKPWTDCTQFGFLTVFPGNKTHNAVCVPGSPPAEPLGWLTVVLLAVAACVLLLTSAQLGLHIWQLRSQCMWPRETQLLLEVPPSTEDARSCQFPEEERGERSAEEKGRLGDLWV

T2: hGITR.mFc (human)
T2 construct: soluble dimeric construct with mouse Fc; also called dimeric human GITR
T2 chain: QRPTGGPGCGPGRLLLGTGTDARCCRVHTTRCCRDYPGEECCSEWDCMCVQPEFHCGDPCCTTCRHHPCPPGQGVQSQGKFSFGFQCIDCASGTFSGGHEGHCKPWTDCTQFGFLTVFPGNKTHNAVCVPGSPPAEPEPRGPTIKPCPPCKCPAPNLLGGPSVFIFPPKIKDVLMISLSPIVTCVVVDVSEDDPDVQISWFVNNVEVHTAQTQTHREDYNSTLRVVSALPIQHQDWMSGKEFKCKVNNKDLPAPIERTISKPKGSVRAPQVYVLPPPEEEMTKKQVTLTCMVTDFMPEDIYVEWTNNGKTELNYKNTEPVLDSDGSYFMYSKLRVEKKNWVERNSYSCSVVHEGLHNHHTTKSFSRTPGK

T3: mfGITR.mmh (Macaca fasicularis)
T3 construct: soluble monomeric construct; also called Macaca fasicularis (mf) GITR.mmh; cynomolgus GITR protein
T3 chain: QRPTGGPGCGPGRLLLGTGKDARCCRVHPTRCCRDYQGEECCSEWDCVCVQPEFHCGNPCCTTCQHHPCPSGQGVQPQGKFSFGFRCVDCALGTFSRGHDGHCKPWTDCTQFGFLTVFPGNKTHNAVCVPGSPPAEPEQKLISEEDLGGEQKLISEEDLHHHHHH

T4: hGITR.mmh (human)
T4 construct: soluble monomeric construct; also called human (h) GITR.mmh; monomeric human GITR
T4 chain: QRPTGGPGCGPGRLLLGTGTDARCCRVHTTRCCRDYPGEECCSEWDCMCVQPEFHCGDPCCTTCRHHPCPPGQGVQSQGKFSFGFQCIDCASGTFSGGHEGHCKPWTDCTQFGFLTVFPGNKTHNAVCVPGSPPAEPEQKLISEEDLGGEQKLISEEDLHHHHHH


Columns and labels:
[1] = target: T1, human GITR (amino acids M1-V241, NCBI …); assay: cell-based or functional assay
[2] = target: T1, human GITR (amino acids M1-V241, NCBI …); assay: ECL cell binding, hGITR/HEK293-D9
Experimental: Nonspecific binding sites were blocked with 2% BSA (w/v)+PBS for 1 h at room temperature (RT). Next, serial dilutions of anti-GITR antibodies, ranging from 1.7 pM to 100 nM, were added to cells for 1 h at RT. Plates were then washed to remove unbound antibodies (AquaMax2000 plate washer, MSD Analytical Technologies) and plate-bound antibodies were detected with a SULFO-TAG™ conjugated anti-human kappa light chain IgG antibody (Jackson Immunoresearch) for 1 h at RT.
Following washes, luminescent signals were recorded with a SECTOR Imager 6000 (MSD) instrument. Direct binding signals (relative light units, RLU) were analyzed as a function of the antibody concentration and data were fitted with a sigmoidal (four-parameter logistic) dose-response model using GraphPad Prism™ software. […] The signal detected with 100 nM antibody binding to the hGITR expressing cells versus parental cells was recorded as an indication of intensity and specificity of GITR binding.

hGITR.mFc = target: T2, hGITR.mFc; assay: SPR 37C, mAb capture
Experimental: (§1) (Table 3). […] GITR proteins were injected over the sensor surface at a flow rate of 30 μL/minute. All Biacore binding studies were performed in a buffer composed of 0.01M HEPES pH 7.4, 0.15M NaCl, 3 mM EDTA, 0.05% v/v Surfactant P20 (HBS-ET running buffer). Antibody-reagent association was monitored for 4 minutes while dissociation in HBS-ET running buffer (10 mM HEPES, 150 mM NaCl, 3 mM EDTA, 0.05% (v/v) Surfactant P20, pH 7.4) was monitored for 10 minutes. Kinetic association (kₐ) and dissociation (kd) rate constants were determined by fitting the real-time sensorgrams to a 1:1 binding model using Scrubber 2.0c curve fitting software. Binding dissociation equilibrium constants (KD) and dissociative half-lives (t ½) were calculated from the kinetic rate constants as: KD [M]=kd/kₐ; and t_{1/2}(min)=(ln 2/(60*kd). Results are summarized in Table 3.

mfGITR.mmh = target: T3, mfGITR.mmh; assay: SPR 37C, mAb capture
Experimental: as §1

hGITR.mmh = target: T4, hGITR.mmh; assay: SPR 37C, mAb capture
Experimental: as §1

Binder	% Activation, NF-kB-Luc, non-anchored [1] [%]	% Blocking, NF-kB-Luc, non-anchored [1] [%]	EC50, hGITR activation, NF-kB-Luc, non-anchored [1] [nM]	IC50, blocking of hGITRL stimulation, NF-kB-Luc, non-anchored [1] [nM]	Average Signal (RLU) at 100 nM [2] [RLU]	EC50 [2] [nM]	Kd (hGITR.mFc) [nM]	koff (hGITR.mFc) [s⁻¹]	kon (hGITR.mFc) [M⁻¹ s⁻¹]	t½ (hGITR.mFc) [min]	Kd (mfGITR.mmh) [nM]	koff (mfGITR.mmh) [s⁻¹]	kon (mfGITR.mmh) [M⁻¹ s⁻¹]	t½ (mfGITR.mmh) [min]	Kd (hGITR.mmh) [nM]	koff (hGITR.mmh) [s⁻¹]	kon (hGITR.mmh) [M⁻¹ s⁻¹]	t½ (hGITR.mmh) [min]
H1H14491P (antibody, human IgG1, V domains shown, human IgG1 (H1H)) VH: QVQLVESGGGVVQPGRSLRLSCVASGFTFSDYGMHWVRQAPGKGLEWVAVIWYEGSNKYYADSVTGRFTISRDNSKNTLFLQMNSLKAEDTAEYYCAKDGGQLAYQYYYGMDVWGQGTTVTVSS VL: AIQMTQSPSSLSASVGDRVTLTCRASQGIRNDLGWYQQKPGKAPKSLIYAASNLQSGVPSRFSGSGSGTDFTLTISSLQPEDSATYYCLQDYNYPRTFGQGTKVEIK	60	90	2	0.6	6840	0.4	0.201	0.000169	842000	68.3	75.3	0.00889	118000	1.3	5.06	0.00162	319000	7.2
H1H14524P (antibody, human IgG1, V domains shown, human IgG1 (H1H)) VH: QVQLVESGGGVAQPGRSLSLSCAASGFTFSDYGMHWVRQAPGKGLEWVAVIWYAGSNKYYADSVKDRFTISRDNSKNTLYLQMRSLRVEDTAVYYCARGGELRLDYYSGLDVWGQGTTVTVSS VL: DIQMTQSPSSLSASVGDRVTVTCRASQGIRSDLGWYQQKPGKAPKRLIYAASSFQSGVPSRFSGSGSGTEFTLTISSLHPEDFATYYCLQSNNYPWTFGQGTKVEIK	40	80	2.2	0.7	5740	0.21	0.146	0.000135	922000	85.6	158	0.0189	120000	0.6	3.62	0.00147	405000	7.9
H1H14495P (antibody, human IgG1, V domains shown, human IgG1 (H1H)) VH: QVQLVESGGGAVQPGTSLRLSCAASGFTFSSFGMHWVRQAPGKGLEWVSVIWYEGSNKYYADSVKGRFTISRDNSRNTLSLQMDSLRVEDTAVYYCARGGELGVNYYYDMDVWGQGTTVTVSS VL: DIQMTQSPSSLSASVGDRVTITCRASQDIKNDLGWFQQKAGKAPKRLFYATSSLQSGVPSRFSGSGSGTEFTLTISSLQPEDFATYYCLQVHSYPRTFGQGTKVEIK	30	80	1.3	0.7	6470	0.43	0.0968	0.00011	1.14e+06	105	24.5	0.00723	296000	1.6	2.45	0.00127	517000	9.1

Now from value to binder:

% Activation, NF-kB-Luc, non-anchored [1] [%]	% Blocking, NF-kB-Luc, non-anchored [1] [%]	EC50, hGITR activation, NF-kB-Luc, non-anchored [1] [nM]	IC50, blocking of hGITRL stimulation, NF-kB-Luc, non-anchored [1] [nM]	Average Signal (RLU) at 100 nM [2] [RLU]	EC50 [2] [nM]	Kd (hGITR.mFc) [nM]	koff (hGITR.mFc) [s⁻¹]	kon (hGITR.mFc) [M⁻¹ s⁻¹]	t½ (hGITR.mFc) [min]	Kd (mfGITR.mmh) [nM]	koff (mfGITR.mmh) [s⁻¹]	kon (mfGITR.mmh) [M⁻¹ s⁻¹]	t½ (mfGITR.mmh) [min]	Kd (hGITR.mmh) [nM]	koff (hGITR.mmh) [s⁻¹]	kon (hGITR.mmh) [M⁻¹ s⁻¹]	t½ (hGITR.mmh) [min]	Binder
30	80	1.2	0.8	6230	0.28	0.107	0.00013	1.21e+06	89.2	28	0.00951	339000	1.2	1.96	0.00116	591000	9.9	H1H14474P (antibody, human IgG1, V domains shown, human IgG1 (H1H)) VH: QVQLVESGGGVVQPGRSLRLSCAASGFTFSSYGMDWVRQAPGKGLEWVAVIWYPGSNKYYADSVKGRFTVSRDNSKNTLYLQMNSLRAEDTAVYYCARDGELGLDYYSGMDVWGQGTTVTVSS VL: DIQMTQSPSSLSASVGDRVTITCRASQGIRNDLNWYQQKPGKAPKRLINGASSLQSGVPSRFSGSGSGTEFTLTISSLQPEDFATYYCLQLNSYPRTFGQGTKVEIK
40	70	2.5	0.9	6350	0.4	0.216	0.00012	555000	96.3	88.5	0.0109	123000	1.1	8.63	0.00186	216000	6.2	H1H14523P (antibody, human IgG1, V domains shown, human IgG1 (H1H)) VH: QVQLVESGGGVVQPGRSLRLSCEASGFTFSSYGMHWVRQAPGKGLEWVAVIWYSESNKYYTDSMKGRLTISRDNSKNTLYLQMNSLRAEDTAVYYCARGGLLGKYYYYGMDVWGQGTTVTVSS VL: DIQMTQSPSSLSASVGDRVIITCRASQDIRNDLGWYQQKPGKAPKRLIYAASSLQSGVPSRFSGSGSGTEFTLTISSLQPEDFATFYCLQLNSYPYTFGQGTKLEIK
50	90	1.4	0.6	5880	0.21	0.137	0.000154	1.12e+06	75	20.9	0.0056	268000	2.1	1.39	0.000739	532000	15.6	H1H14503P (antibody, human IgG1, V domains shown, human IgG1 (H1H)) VH: QVQLVESGGGVVQPGRSLRLSCEASGFTFSNYGFHWVRQAPGKGLDWVAVIWYAGSNKFYVDSVQGRFTISRDNSKQILFLQMNSLRAEDSAVYYCVRGGILGIDYYSGMDVWGQGTTVTVSS VL: AIQMTQSPSSLSASVGDRVTITCRASQDIRNDLGWYQQRPGKAPKFLIYSTSSLQSGVPSRFSGSGSGTDFILTISSLQPEDFATYYCLQSHNYPWTFGHGTKVEIK
				4200	85	0.63	0.000185	293000	62.6	2.55	0.000611	240000	18.9	5.06	0.00138	272000	8.4	H4H14530P (antibody, human IgG4, V domains shown, human IgG4 (H4H)) VH: QLQLQESGPGLVKPSETLSLTCTVSGGSISSTNHYWGWIRQPPGKGLEWIGNVYYIGNAYYNPSLKTGVTFSVDTSKNQFSLNLRSVTAADTAMYYCARLSNWNFLDLWGQGTLVTVSS VL: EIVMTQSPATLSVSPGERATLSCRASQSISSNLAWYQQKPGQAPRLLIYGASTRATGIPARFSGSGSGTEFTLTISSLQSEDFAVYYCQQFNNWLSFGGGTKVEIK
